± gives the uncertainty stated by the source.
Assay: self-splicing fitness, log relative to wild type (ln ratio); higher = more splicing; Tetrahymena group I intron in knt gene, E. coli kanamycin selection, DiMSum; sequences stand for … in CUCUCU…GGAGGGAAAAGUUAUCAGGCAUGCACCUGGUAGCUAGUCUUUAAACCAAUAGAUUGCAUCGGUUUAAAAGGCAAGACCGUCAAAUUGCGGGAAAGGGGUCAACAGCCGUUCAGUACCAAGUCUCAGGGGAAACUUUGAGAUGGCCUUGCAAAGGGUAUGGUAAUAAGCUGACGGACAUGGUCCUAACCACGCAGCCAAGUCCUAAGUCAACAGAUCUUCUGUUGAUAUGGAUGCAGUUCACAGACUAAAUGUCGGUCGGGGAAGAUGUAUUCUUCUCAUAAGAUAUAGUCGGACCUCUCCUUAAUGGGAGCUAGCGGAUGAAGUGAUGCAACACUGGAGCCGCUGGGAACUAAUUUGUAUGCGAAAGUAUAUUGAUUAGUUUUGGAGUACUCGUGGUCG
In short: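 Library with all eight P1ex-region intron nucleotides randomised, intron inside the knt kanamycin-resistance gene on pET-22b(+), in E. coli BL21(DE3). Cells grew overnight at 37°C or 30°C on LB agar with or without 25 μg/mL kanamycin (plus 100 μg/mL carbenicillin, 50 μM IPTG, 0.2% rhamnose), in six replicate transformations. Pooled colonies were amplicon-sequenced on Illumina HiSeq 2500. DiMSum fitness is the error-weighted combination of wild-type-normalised replicate fold changes, kanamycin versus none.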

| Sequence | self-splicing fitness (ln) (30 °C) | self-splicing fitness (ln) (37 °C) |
| --- | --- | --- |
| ACCCAGCAAUAUUACGGUUU | -0.863 ± 0.041 | 0.0681 ± 0.056 |
| ACCCAGCAAUAUUACGUAGG | -0.517 ± 0.064 | -0.48 ± 0.081 |
| ACCCAGCAAUAUUACGUAUG | -3.89 ± 0.14 | -1.77 ± 0.11 |
| ACCCAGCAAUAUUACGUCAA | -1.88 ± 0.099 | -1.59 ± 0.11 |
| ACCCAGCAAUAUUACGUCCG | -3.83 ± 0.22 | -0.701 ± 0.14 |
| ACCGAGCAAUAUUACGAAUA | -3.02 ± 0.32 | -2.41 ± 0.2 |
| ACCGAGCAAUAUUACGACAU | -2.219 ± 0.015 | -1.3 ± 0.033 |
| ACCGAGCAAUAUUACGCAAA | -3.62 ± 0.24 | -3.11 ± 0.24 |
| ACCGAGCAAUAUUACGCAAG | -3.36 ± 0.17 | -2.35 ± 0.18 |
| ACCGAGCAAUAUUACGCAUU | -3.91 ± 0.17 | -1.78 ± 0.12 |
| ACCGAGCAAUAUUACGCGAG | -2.75 ± 0.19 | -2.06 ± 0.15 |
| ACCGAGCAAUAUUACGCUAC | -3.58 ± 0.19 | -2.86 ± 0.24 |
| ACCGAGCAAUAUUACGCUUA | -1.56 ± 0.14 | -1.63 ± 0.17 |
| ACCGAGCAAUAUUACGCUUU | -3.06 ± 0.28 | -1.56 ± 0.15 |
| ACCGAGCAAUAUUACGGACA | -1.25 ± 0.15 | -0.523 ± 0.15 |
| ACCGAGCAAUAUUACGGAUG | -2.12 ± 0.12 | -1.85 ± 0.098 |
| ACCGAGCAAUAUUACGGCAA | -1.19 ± 0.12 | -1.48 ± 0.12 |
| ACCGAGCAAUAUUACGGUUU | -3.42 ± 0.14 | -2.35 ± 0.18 |
| ACCGAGCAAUAUUACGUAAC | -4.02 ± 0.32 | -2.88 ± 0.35 |
| ACCGAGCAAUAUUACGUAGA | -4.48 ± 0.29 | -2.69 ± 0.18 |
| ACCGAGCAAUAUUACGUCAU | -5.01 ± 0.34 | -2.68 ± 0.14 |
| ACCGAGCAAUAUUACGUCUC | -3.22 ± 0.32 | -2.77 ± 0.48 |
| ACCGAGCAAUAUUACGUCUU | -2.91 ± 0.12 | -2.22 ± 0.13 |
| ACCGAGCAAUAUUACGUGCU | -3.32 ± 0.25 | -2.49 ± 0.27 |

| Sequence | self-splicing fitness (ln) (30 °C) | self-splicing fitness (ln) (37 °C) |
| --- | --- | --- |
| ACCGAGCAAUAUUACGUUUU | -3.3 ± 0.15 | -2.59 ± 0.15 |
| ACCUAGCAAUAUUACGAAAC | -2.68 ± 0.15 | -2.31 ± 0.19 |
| ACCUAGCAAUAUUACGAGAA | -2.97 ± 0.35 | -2.29 ± 0.31 |
| ACCUAGCAAUAUUACGAGAG | -2.34 ± 0.13 | -0.462 ± 0.08 |
| ACCUAGCAAUAUUACGAUUA | -2.05 ± 0.15 | -1.51 ± 0.12 |
| ACCUAGCAAUAUUACGCAUG | -2.27 ± 0.15 | -1.42 ± 0.14 |
| ACCUAGCAAUAUUACGCCGA | -2.23 ± 0.13 | -1.01 ± 0.13 |
| ACCUAGCAAUAUUACGCCUU | -1.43 ± 0.098 | 0.204 ± 0.12 |
| ACCUAGCAAUAUUACGCGUG | -0.901 ± 0.077 | -0.11 ± 0.1 |
| ACCUAGCAAUAUUACGCUAG | -3.86 ± 0.25 | -2.79 ± 0.28 |
| ACCUAGCAAUAUUACGCUGA | -1.59 ± 0.082 | -0.127 ± 0.09 |
| ACCUAGCAAUAUUACGGAGG | -2.4 ± 0.14 | -2.16 ± 0.21 |
| ACCUAGCAAUAUUACGGGCC | -2.34 ± 0.18 | -0.63 ± 0.16 |
| ACCUAGCAAUAUUACGUACG | -2.46 ± 0.16 | -1.02 ± 0.14 |
| ACCUAGCAAUAUUACGUCUA | -2.44 ± 0.21 | -2.04 ± 0.25 |
| ACCUAGCAAUAUUACGUGCG | -1.5 ± 0.069 | -0.773 ± 0.077 |
| ACCUAGCAAUAUUACGUGUC | -4.29 ± 0.29 | -2.24 ± 0.17 |
| ACCUAGCAAUAUUACGUUUG | -2.6 ± 0.08 | -2.03 ± 0.11 |
| ACGAAGCAAUAUUACGAACC | -1.75 ± 0.14 | -0.895 ± 0.19 |
| ACGAAGCAAUAUUACGAAUU | -3.63 ± 0.17 | -2.37 ± 0.15 |
| ACGAAGCAAUAUUACGACCC | -0.88 ± 0.22 | 0.121 ± 0.26 |
| ACGAAGCAAUAUUACGACCG | -0.458 ± 0.12 | 0.219 ± 0.14 |
| ACGAAGCAAUAUUACGACGC | -0.651 ± 0.18 | -0.221 ± 0.16 |
| ACGAAGCAAUAUUACGAGAG | -3.39 ± 0.28 | -2.53 ± 0.22 |

| Sequence | self-splicing fitness (ln) (30 °C) | self-splicing fitness (ln) (37 °C) |
| --- | --- | --- |
| ACGAAGCAAUAUUACGAGGU | -3.96 ± 0.22 | -3.57 ± 0.22 |
| ACGAAGCAAUAUUACGAUAC | -3.68 ± 0.2 | -2.2 ± 0.22 |
| ACGAAGCAAUAUUACGAUUC |  | -2.8 ± 0.33 |
| ACGAAGCAAUAUUACGCAUA | -1.44 ± 0.08 | -0.782 ± 0.072 |
| ACGAAGCAAUAUUACGCCAC | -3.08 ± 0.19 | -2.56 ± 0.28 |
| ACGAAGCAAUAUUACGCCCA | -1.11 ± 0.17 | -0.748 ± 0.26 |
| ACGAAGCAAUAUUACGCCGA | -0.564 ± 0.086 | -0.414 ± 0.1 |
| ACGAAGCAAUAUUACGGCCA | -0.778 ± 0.091 | 0.402 ± 0.095 |
| ACGAAGCAAUAUUACGGCUA | 0.0742 ± 0.099 | 0.022 ± 0.11 |
| ACGAAGCAAUAUUACGGGGC | -3.36 ± 0.14 | -2.76 ± 0.16 |
| ACGAAGCAAUAUUACGGGUG | -1.74 ± 0.069 | -1.36 ± 0.083 |
| ACGAAGCAAUAUUACGGUAU | -2.57 ± 0.093 | -1.27 ± 0.091 |
| ACGAAGCAAUAUUACGGUUU | -3.17 ± 0.13 | -1.89 ± 0.12 |
| ACGAAGCAAUAUUACGUCGA | -2.34 ± 0.12 | -1.65 ± 0.1 |
| ACGAAGCAAUAUUACGUCGC | -3.22 ± 0.21 | -1.24 ± 0.17 |
| ACGAAGCAAUAUUACGUGCG | -1.35 ± 0.074 | -1.36 ± 0.089 |
| ACGAAGCAAUAUUACGUGCU | -2.96 ± 0.12 | -1.84 ± 0.14 |
| ACGCAGCAAUAUUACGAAUC | -4.07 ± 0.34 | -2.11 ± 0.22 |
| ACGCAGCAAUAUUACGAAUU | -4.01 ± 0.23 | -1.48 ± 0.1 |
| ACGCAGCAAUAUUACGCGCA | -0.215 ± 0.096 | 0.231 ± 0.11 |
| ACGCAGCAAUAUUACGCGUG | -3.43 ± 0.18 | -2.07 ± 0.17 |
| ACGCAGCAAUAUUACGGAGU | -2.79 ± 0.093 | -2.08 ± 0.12 |
| ACGCAGCAAUAUUACGGCCA | -0.646 ± 0.092 | 0.161 ± 0.12 |
| ACGCAGCAAUAUUACGGCUU | -0.345 ± 0.046 | -0.227 ± 0.057 |

| Sequence | self-splicing fitness (ln) (30 °C) | self-splicing fitness (ln) (37 °C) |
| --- | --- | --- |
| ACGCAGCAAUAUUACGGGAU | -2.32 ± 0.079 | -1.41 ± 0.089 |
| ACGCAGCAAUAUUACGGUAU | -2.67 ± 0.15 | -1.03 ± 0.12 |
| ACGCAGCAAUAUUACGGUGA | -1.39 ± 0.05 | 0.18 ± 0.063 |
| ACGCAGCAAUAUUACGUCGA | -2.34 ± 0.11 | -1.34 ± 0.092 |
| ACGCAGCAAUAUUACGUGCU | -3.65 ± 0.18 | -2.9 ± 0.19 |
| ACGCAGCAAUAUUACGUGUC | -3.37 ± 0.14 | -2.71 ± 0.2 |
| ACGCAGCAAUAUUACGUUCC | -1.71 ± 0.11 | -2.26 ± 0.19 |
| ACGCAGCAAUAUUACGUUGU | -3.57 ± 0.13 | -2.84 ± 0.12 |
| ACGGAGCAAUAUUACGAGUU | -3.23 ± 0.22 | -2.54 ± 0.33 |
| ACGGAGCAAUAUUACGAUAU | -2.48 ± 0.21 | -2.12 ± 0.23 |
| ACGGAGCAAUAUUACGAUGA | -2.56 ± 0.12 | -2.57 ± 0.19 |
| ACGGAGCAAUAUUACGAUUC | -2.11 ± 0.32 |  |
| ACGGAGCAAUAUUACGCCUA | -2.13 ± 0.28 | -1.6 ± 0.27 |
| ACGGAGCAAUAUUACGCUAG | -2.63 ± 0.25 | -2.16 ± 0.34 |
| ACGGAGCAAUAUUACGGCCA | -1.69 ± 0.25 | -2.11 ± 0.23 |
| ACGGAGCAAUAUUACGGGAC | -2.93 ± 0.39 | -2.69 ± 0.36 |
| ACGGAGCAAUAUUACGGGUG | -3.61 ± 0.18 | -3.18 ± 0.22 |
| ACGGAGCAAUAUUACGUAGU | -2.37 ± 0.11 | -1.36 ± 0.12 |
| ACGGAGCAAUAUUACGUCCG | -3.13 ± 0.37 | -2.36 ± 0.42 |
| ACGGAGCAAUAUUACGUGGC | -4.63 ± 0.42 |  |
| ACGGAGCAAUAUUACGUUUA | -3.14 ± 0.2 | -2.68 ± 0.21 |
| ACGGAGCAAUAUUACGUUUU |  | -3.08 ± 0.2 |
| ACGUAGCAAUAUUACGAAAC | -2.02 ± 0.45 | -2.26 ± 0.4 |
| ACGUAGCAAUAUUACGACAG | -2.56 ± 0.13 | -0.828 ± 0.13 |

Source: the supplement of paper PMC7877785
